# Earlier results as cited in PMC9784434.
# Biological target: NKG2D (Homo sapiens) (UniProt P26718)
# Chain of UniProt P26718 (P26718 whole entry): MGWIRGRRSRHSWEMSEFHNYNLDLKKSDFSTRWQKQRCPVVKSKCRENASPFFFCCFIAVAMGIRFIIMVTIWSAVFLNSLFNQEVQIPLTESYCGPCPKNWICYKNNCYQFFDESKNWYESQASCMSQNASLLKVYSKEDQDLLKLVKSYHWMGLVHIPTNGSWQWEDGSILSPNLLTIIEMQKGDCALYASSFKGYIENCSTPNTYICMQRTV
substance,measurement,value
MICB (from UniProt Q29980),Kd,800 nM
